Reference: article PMC2719695, “Structures of native human thymidine phosphorylase and in complex with 5-iodouracil” (Biochemical and Biophysical Research Communications, 2009)

Target: the molecule itself
Experiment: crystal structure; native hTP without ligand, space group P2(1), 0.1 M Na-acetate pH 5.2, 25% PEG 4000, 0.1 M ammonium acetate; 3.0 Å; four chains in the asymmetric unit

B1: Human thymidine phosphorylase (enzyme)
chain: APPAPGDFSGEGSQGLPDPSPEPKQLPELIRMKRDGGRLSEADIRGFVAAVVNGSAQGAQIGAMLMAIRLRGMDLEETSVLTQALAQSGQQLEWPEAWRQQLVDKHSTGGVGDKVSLVLAPALAACGCKVPMISGRGLGHTGGTLDKLESIPGFNVIQSPEQMQVLLDQAGCCIVGQSEQLVPADGILYAARDVTATVDSLPLITASILSKKLVEGLSALVVDVKFGGAAVFPNQEQARELAKTLVGVGASLGLRVAAALTAMDKPLGRCVGHALEVEEALLCMDGAGPPDLRDLVTTLGGALLWLSGHAGTQAQGAARVAAALDDGSALGRFERMLAAQGVDPGLARALCSGSPAERRQLLPRAREQEELLAPADGTVELVRALPLALVLHELGAGRSRAGEPLRLGVGAELLVDVGQRLRRGTPWLRVHRDGPALSGPQSRALQEALVLSDRAPFAAPSPFAELVLPPQQ
notes: Human thymidine phosphorylase (hTP, EC 2.4.2.4), cDNA clone from the Mammalian Gene Collection; residues 32-480 are seen in the crystals; Homodimer; the His tag is surmised from the Ni2+ column; Native crystal: residues 34-479 in all four copies (32, 33 and 480 in some chains); complex with 5-iodouracil: residues 35-480 in both chains; also called hTP; TP; source: E. coli …
stoichiometry N: 2
